Values of other authors in publication PMC5689411.

Molecular target: RNR beta2 (Escherichia coli) (UniProt P69924)
Experiment: competitive inhibition assay

UniProt P69924, sequence (P69924 2-376): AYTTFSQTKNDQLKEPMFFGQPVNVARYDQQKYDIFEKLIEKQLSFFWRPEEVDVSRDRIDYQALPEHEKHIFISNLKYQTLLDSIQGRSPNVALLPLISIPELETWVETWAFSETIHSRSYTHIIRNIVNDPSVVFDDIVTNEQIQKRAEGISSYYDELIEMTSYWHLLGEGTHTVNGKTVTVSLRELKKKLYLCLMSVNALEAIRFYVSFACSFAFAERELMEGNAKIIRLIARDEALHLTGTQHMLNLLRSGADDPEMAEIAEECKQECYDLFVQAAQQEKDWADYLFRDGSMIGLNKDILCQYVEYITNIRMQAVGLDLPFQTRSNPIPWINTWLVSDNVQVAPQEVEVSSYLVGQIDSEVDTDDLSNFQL

For RNR alpha2 (from UniProt P00452), the Kd is given as 0.18 µM.
